From PMC8465892, “CDR1 Composition Can Affect Nanobody Recombinant Expression Yields” (Biomolecules, 2021)

What follows are binders tested against T1, Her2 ectodomain-Fc (UniProt P04626 23-652) (assay: SPR; Biacore T200, 25 °C; Her2 ectodomain-Fc immobilized by amine-coupling on a CM5 chip at 1180 RU; nanobodies injected at 30 µL/min in 20 mM Hepes, 150 mM NaCl, 3 mM EDTA, 0.005% Tween 20, pH 7.4; eight concentrations between 250 and 3.5 nM; 1:1 Langmuir model). Details: both partners purified.
T1 construct: Her2 ectodomain

Binder | Kd [µM]
A10 wt (VHH, anti-Her2 nanobody isolated by panning a synthetic library; also called anti-Her2 ectodomain nanobody A10; source: pET-derived vectors, produced as previously reported [17]) VHH: EVQLQASGGGFVQPGGSLRLSCAASGATSNISNMGWFRQAPGKEREFVSAISRAESRPLYYADSVKGRFTISRDNSKNTVYLQMNSLRAEDTATYYCAYMPLVRHKAYWGQGTQVTVSS | 0.0049
A10 mutKG (VHH, A10 wt with a glycine inserted after A29 in CDR1 (G29a); also called G29a; source: gene synthetized by Twist Bioscience, pET-derived vectors, produced as previously reported [17]) VHH: EVQLQASGGGFVQPGGSLRLSCAASGAGTSNISNMGWFRQAPGKEREFVSAISRAESRPLYYADSVKGRFTISRDNSKNTVYLQMNSLRAEDTATYYCAYMPLVRHKAYWGQGTQVTVSS | 0.0347
A10 mutG0 (VHH, A10 wt with a glycine inserted after S31 in CDR1 (G31a); also called G31a; source: gene synthetized by Twist Bioscience, pET-derived vectors, produced as previously reported [17]) VHH: EVQLQASGGGFVQPGGSLRLSCAASGATSGNISNMGWFRQAPGKEREFVSAISRAESRPLYYADSVKGRFTISRDNSKNTVYLQMNSLRAEDTATYYCAYMPLVRHKAYWGQGTQVTVSS | 0.0235
A10 mutKG.1 (VHH, A10 mutKG (G29a) with five framework mutations printed as Q8E, F13L, S51A, R90K, A91P; source: gene synthetized by Doulix, pET-derived vectors, produced as previously reported [17]) VHH: EVQLQESGGGLVQPGGSLRLSCAASGAGTSNISNMGWFRQAPGKEREFVAAISRAESRPLYYADSVKGRFTISRDNSKNTVYLQMNSLKPEDTATYYCAYMPLVRHKAYWGQGTQVTVSS | 0.0099
